Experimental data taken from doi:10.1101/2021.06.15.447100.

Assays:
[1] = molecular target: C.1086 UFO gp140 (Uncleaved preFusion Optimized, no disulfide linkage between A501 and T605) (HIV-1 (clade C, C.1086)); assay: SEC
[2] = molecular target: C.1086 UFO gp140 (Uncleaved preFusion Optimized, no disulfide linkage between A501 and T605) (HIV-1 (clade C, C.1086)); assay: negative stain electron microscopy
[3] = molecular target: C.1086 SOSIP gp140 (HIV-1 (clade C, C.1086)); assay: SEC
[4] = molecular target: BG505 SOSIP.664 (HIV-1 (clade A, BG505)); assay: SEC
[5] = molecular target: C.1086 NFL gp140 (Native Flexibly Linked with I559P) (HIV-1 (clade C, C.1086)); assay: SEC

“C.1086 UFO gp140 (Uncleaved preFusion Optimized, no disulfide linkage between A501 and T605) (natural protein)” was tested. Which stoichiometry N [1] did it give?
Its stoichiometry N is 3.

And the stoichiometry N [2]?
Its stoichiometry N is 3.

How did the stoichiometry N [3] turn out when C.1086 SOSIP gp140 (natural protein) was run?
The stoichiometry N was 3.

Which stoichiometry N [4] does the source give for BG505 SOSIP.664 (natural protein) here?
Its stoichiometry N is 3.

For “C.1086 NFL gp140 (Native Flexibly Linked with I559P) (natural protein)”, which stoichiometry N [5] is on record?
The stoichiometry N was 3.
